According to patent US20230382979A1 (ADAPTIVE BIOTECHNOLOGIES, published 2023):

Tests used:
[1] = molecular target: T1, Receptor-binding domain (RBD) of the SARS-CoV-2 spike protein, WA01/2020 strain (SARS-CoV-2, WA01/2020 strain, UniProt P0DTC2 319-541); assay: ELISA screening, antibody concentration not given
[2] = molecular target: T1, Receptor-binding domain (RBD) of the …; assay: ELISA, antibody blocks RBD binding to human ACE2
[3] = molecular target: SARS-CoV-2 spike protein, B1.351 (beta variant), borne on lentiviral pseudovirus (SARS-CoV-2, B1.351); assay: cell-based or functional assay
[4] = molecular target: SARS-CoV-2 spike protein, B1.1.7 (alpha variant), borne on lentiviral pseudovirus (SARS-CoV-2, B1.1.7); assay: cell-based or functional assay
[5] = molecular target: SARS-CoV-2 spike protein on live virus, strain USA-WA1/2020 (SARS-CoV-2, WA01/2020 strain, UniProt P0DTC2 14-1273); assay: cell-based or functional assay
[6] = molecular target: T1, Receptor-binding domain (RBD) of the …; assay: SPR (Biacore 8K), antigen immobilized, antibody injected
[7] = molecular target: T1, Receptor-binding domain (RBD) of the …; assay: dose-response ELISA on coated antigen

Binder	binding result [1]	Pseudo Neut, B1.351 IC50 (pM) [3] [pM]	other results
antibody 1856 (antibody, V domains shown) VH: EVRLVESGGGLVKPGGSLRLSCAASGFSFSLYTMNWVRQAPGKGLEWVSYISSSSSYRYYADSVKGRFSVSRDNAKNTLYLEMNGLRAEDTAVYYCARDGYCPRGVCTYYGMDVWGQGTTVTVSA VL: EIVMTQSPATLSVSPGERATLSCRASQTIGIRLAWYQQKPGQAPRLLIYDATIRATGIPARFSGSGSGTDFTLTISGLQSEDFAVYYCQRYNNWPPVYTFGQGTKLEMK	no binding (tested: not printed)		
antibody 1826 (antibody, V domains shown) VH: QVQLQESGPGLVKPSETLSLTCSVTGGSTNYYYWSWIRQPPGKGLEWIGYIYYSGTTNYNPSLKDRVTMSVDKSKTQLSLKLNSVTAADTAVYYCARHARHCTNGVCQTYYYYGLDVWGLGTTVAVSA VL: QSVLTQPPSVSAAPGQRVTISCSGSSSNIGAGYDVHWYQHLPGTAPKLLIYNNNNRPSGVPDRFSASRSGTSASLAITGVQTEDEADYYCQSFDGRLSESGVFGGGTKLTVL	no binding (tested: not printed)		
antibody 2706 (antibody, V domains shown) VH: QVQLVQSGAEVKKPGSSVKVSCKASGGTFSTYAISWVRQAPGQGLEWMGGIIPLFATANYAQNFQGRVTITADKSTSTAYMELSSLRSEDTAVYYCASVRLHLEELSLSHQGDYYYGLDVWGQGTTVTVSS VL: DIQMTQSPSSLSASVADRVTITCQASQDISHYLNWYQQKPGKAPQLLIYDASKLETGAPSRFSGSGSGTDFTFTISSLQPEDIATYYCQQYDHLPLTFGGGSKVEIK		> 18000	IC50 [2]: 510 pM; Pseudo Neut, B1.1.7 IC50 (pM) [4]: 13 pM; Live Neut, WA1/2020 IC50 (pM) [5]: 171 pM; Kd [6]: 29 pM; EC50 [7]: 17 pM
antibody 1959 (antibody, V domains shown) VH: QVQLVQSGTEVKKPGSSVRVSCQASGDTFTSHAIIWIRQAPGQGLEYLGRIIPVLDITNAAQRFLGRLTLTADKSTTTAYMELSSLRSEDTAVYYCARAPFGLIVMYDHWGQGTLVTVTA VL: EIVLTQSPGTLSLSPGERATLSCRASQSVSGNFLAWYQQKPGQAPRLLIHETSKRATGIPDRVSGGGSGTDFTLTISRLEPEDFAVYHCQQYGTTAVTFGQGTRLDMK	no binding (tested: not printed)		
antibody 1823 (antibody, V domains shown) VH: EVQLVESGGGLVKPGGSLRLSCVASGFSFGLYTMNWVRQAPGKGLEWVSYISSSTSYKYYADSVKGRVSVSRDNAKNSLYLQLNGLRVEDTAVYYCARDGYCPNGICTYYGMDVWGQGTTVTVSA VL: EIVMTQSPATLSVSPGERATLSCRASQSVSSNLAWYQQKPGQAPRLLIYGASTRATGIPARFSGSGSGTEFTLTITGLQSEDFAVYYCQQYDKWPPAYSFGQGTKVEIK		133	Pseudo Neut, B1.1.7 IC50 (pM) [4]: 850 pM
antibody 1871 (antibody, V domains shown) VH: EVQLVESGGGLVKPGGSLRLSCVASGFSFSIYSMNWVRQAPGKGLEWVSYISSSSSYKYYADSVKGRFSVSRDNAKNSLYLQLNGLRAEDTAVYYCARDGYCPKGVCTYYGMDVWGQGTTVTVSA VL: EIVMTQSPATLSVSPGERVTLSCRASQSVRSRLAWFQQKPGQAPRLLIYDASIRATGIPARFSGSGSGTEFTLIISSLQSEDFAVYYCQQYDNWPPAYTFGQGTKLEIK	no binding (tested: not printed)	208	Pseudo Neut, B1.1.7 IC50 (pM) [4]: 110 pM
antibody 1867 (antibody, V domains shown) VH: EVQLVESGGGLVKPGGSLRLSCAASGFSFSTYTMNWVRQAPGKGLEWVSYISSSSSYRYYADSVRGRFSVSRDNAKNSLYLQMNGLRVEDTAVYYCARDGYCPNGVCTYYGMDVWGQGTTVTVSS VL: not shown	no binding (tested: not printed)		
antibody 1888 (antibody, V domains shown) VH: EVQLVESGGGLVKPGGSLRLSCAASGFTFSSYSMNWVRQAPGKGLEWVSYISSSSSYKYYADSVKGRFSVSRDNAKNSLYLQLNGLRVEDTAVYYCARDGYCPKGVCTYYGMDVWGQGTTVTVSA VL: EIVMTQSPATLSVSPGERATLSCRASQSVRSRLAWFQQKPGQPPRLLIYDASIRATGIPDRFSGSGSGTEFTLIISGLQSEDFAVYYCQQYDNWPPAYTFGQGTKLEIK	no binding (tested: not printed)		
antibody 1859 (antibody, V domains shown) VH: EVQLVESGGGLVKPGGSLRLSCAASGFSFNTYTMNWVRQAPGKGLEWVSYISSSSSYKYYSDSVKGRFSVSRDNAKKSLYLQMNGLRAEDTAVYYCARDGYCPNGVCTYYGMDVWGQGTTVTVSL VL: EIVMTQSPATLSVSPGERATLSCRASQSVSSNLAWYQQKPGQAPRLLIYGASTRATGIPARFSGSGSGTEFTLTISGLQSEDFAVYFCQQYSKWPPAYTFGQGTKLEIK	no binding (tested: not printed)	73	Pseudo Neut, B1.1.7 IC50 (pM) [4]: 230 pM
antibody 1969 (antibody, V domains shown) VH: QVQLVQSGAEVKKPGASVKVSCKASGYSFTDYYIHWVRQAPGQGLEWMGIIKPSAGATVYAQKFRGRVSMTSDTSTGTVYMELSGLKSEDTAVYYCARDYNRSFDFWGQGTLVTVSS VL: QSVLTQPPSVSAAPGQTVTISCAGSTSNIGKNYVSWYQHLPGTAPKLLIYDNIKRPSGIPDRFSGSTSGTSATLGITELQTGDEADYYCGTWDSSLSAYVFGTGTKVTVL	no binding (tested: not printed)		
antibody 1963 (antibody, V domains shown) VH: QVQLVQSGAEVKKPGASVKVSCKASGYTFTSNYIHWLRQAPGQGLEWMGIIKPSGTSTISAQKFRGRVAMTRDTSTSTVYMELSSLRFEDTAIYYCARDAKRALETWGQGTMVTVSS VL: QSVLTQPPSVSAAPGQKVTISCSGSSSNIGNNYVSWYQQLPGTAPKLLIYDNNKRPSGIPDRFSGSRSGTSATLGITGLQTGDEADYYCGTWDSSLSAWVFGGGTKLTVL	no binding (tested: not printed)		
antibody 1915 (antibody, V domains shown) VH: QVQLVESGGGVVQPGRSLRLSCAASGFTFSSYAMHWVRQAPGKGLEWVAVISYDGSNKYYADSVKGRFTISRDNSKNTLYLQMDSLRAQDTAVYYCATPRDMFSSGWSSPFDYWGQGTLVTVSS VL: DIQMTQSPSSLSASVGDRVTITCQASQDISIYLTWYQQKPGKAPKLLIYGASNLEVEVPSRFSGSGSGTEFTLTISSLQPEDFATYFCQHSDDLPVTFGGGTKVEVK	no binding (tested: not printed)		
antibody 1814 (antibody, V domains shown) VH: QVQLQESGPGLVKPSETLSLTCSVSGGSINYYYWSWIRQTPGQGLEWIGFIYSSGTTNYNPSLKSRVTMSKDTAKKQFSLKLTSVTAADSAVYYCARHSRSCTNGVCQTYYYYALDVWGHGTTVTVSS VL: QSVLTQPPSVSGAPGQRVTISCTGSGSNIGSGYDVHWYQQLPGRAPKLLIYRNRNRPSGVPDRFSGSKSGTSASLAIAGLQSEDEGDYFCQSYDGRLGESAVFGGGTRLTVL	no binding (tested: not printed)	32	Pseudo Neut, B1.1.7 IC50 (pM) [4]: 237 pM
antibody 1815 (antibody, V domains shown) VH: QVQLQESGPGLVKPSETLSLTCSVSGGSINYYYWSWIRKSPGKGLEWIGFIYSSGTTNYNPSLKSRVSMSIGTSKRQFSLKLSSVTAADSAVYYCARHSRSCTNGVCQTYYYYALDVWGHGTTVTVSS VL: QSVLTQPPSVSGAPGQRVTISCTGSSSNIGAGYDVHWYQQLPGTAPKLLIYANTHRPSGVPDRFSASKSGTSASLAIAGLQAEDEGDYYCQSYDGSLSESAVFGGGTRLTVL	no binding (tested: not printed)	345	
antibody 1864 (antibody, V domains shown) VH: QVQLQESGPGLVKPSETLSLTCTVSGGSINYYYWSWIRQPPGKGLEWIGFIYSSGTTNYNPSLKSRVTMSVDSSKSQFSLKLSSVTAADSAVYYCARHSRSCTNGVCQTYYYYALDVWGHGTTVTVSS VL: QSVLTQPPSVSGAPGQRVTISCTGSSSNIGAGYDVHWYQQLPGTAPKLLIYGNSNRPSGVPDRFSASKSGTSASLAIAGLQPEDEGDYYCQSYDGSLSESGVFGGGTRLTVL	no binding (tested: not printed)		
antibody 1870 (antibody, V domains shown) VH: QVQLQESGPGLVKPSETLSLTCSVSGGSINYYYWSWIRQPPGKGLEWIGFIYSSGTTNYNPSLKSRVTMSVDTSKNQFSLKLSSVTAADSAVYYCARHSRSCTNGVCQTYYYYALDVWGHGTTVTVSS VL: QSVLTQPPSVSGAPGQRVTISCTGSSSNIGAGYDVHWYQQLPGTAPKLLIYGNSNRPSGVPDRFSASKSGTSASLAIAGLQAEDEGDYYCQSYDGSLSESGVFGGGTRLTVL	no binding (tested: not printed)		
antibody 1851 (antibody, V domains shown) VH: QVQLQESGPGLVKPSETLSLTCTVSGGSINYYYWSWIRQSPGKGLEWIGFIYSSGTTNYNPSLKSRVTMSVDSSKSQFSLKLSSVTAADSAVYYCARHSRSCTNGVCQTYYYYALDVWGHGTTVTVSS VL: QSVLTQPPSVSGAPGQRVTISCTGSSSNIGAGYDVHWYQQLPGTAPKLLIYGNSNRPSGVPDRFSASKSGTSASLAIAGLQPEDEGDYYCQSYDGSLSESGVFGGGTRLTVL	no binding (tested: not printed)		
